According to paper PMC12148432, “Discovery and biochemical characterization of the D-aspartyl endopeptidase activity of the serine protease LACTB [drawing 1]” (The Journal of Biological Chemistry, 2025):

Substrate: Cc1cc(=O)oc2cc(NC(=O)[C@@H](CC(=O)O)NC(=O)CCC(=O)O)ccc12
Assay: AMC fluorescence, kinetic plate-reader assay, initial rates
Assay type: biochemical, Homo sapiens
Settings: pH 8.0, 30 °C, Tris-HCl, 150 mM NaCl

B1: 6His-SUMO1-hLACTB (97–547) (hLACTB WT) (Homo sapiens) (protein)
chain: APPCSRCFARAIESSRDLLHRIKDEVGAPGIVVGVSVDGKEVWSEGLGYADVENRVPCKPETVMRIASISKSLTMVALAKLWEAGKLDLDIPVQHYVPEFPEKEYEGEKVSVTTRLLISHLSGIRHYEKDIKKVKEEKAYKALKMMKENVAFEQEKEGKSNEKNDFTKFKTEQENEAKCRNSKPGKKKNDFEQGELYLREKFENSIESLRLFKNDPLFFKPGSQFLYSTFGYTLLAAIVERASGCKYLDYMQKIFHDLDMLTTVQEENEPVIYNRARFYVYNKKKRLVNTPYVDNSYKWAGGGFLSTVGDLLKFGNAMLYGYQVGLFKNSNENLLPGYLKPETMVMMWTPVPNTEMSWDKEGKYAMAWGVVERKQTYGSCRKQRHYASHTGGAVGASSVLLVLPEELDTETINNKVPPRGIIVSIICNMQSVGLNSTALKIALEFDKDRSD
notes: residues 97-547 (putative catalytic domain), N-terminal 6His-SUMO1 fusion kept, expressed in Escherichia coli, Ni-NTA and size-exclusion purified
  Km: 25.3 ± 2.7 µM
  kcat: 6.02 ± 0.12 s⁻¹
